According to article PMC7100586:

Target: clathrin heavy chain (Sus scrofa)
Test: cryo-EM structure

- stoichiometry N: 3
Substance: clathrin heavy chain (natural protein)
